Measured values from the DeepSol protein solubility set.

Test: soluble on expression in E. coli; label from the status in PepcDB or PDB records

Row | Sequence | soluble on expression in E. coli
1 | MSLAIQNPYTAYQQNSVNTATPGELTLMLYNGCLKFIRLAAQAIENDDMERKNENLIKAQNIIQELNFTLNRNIELSASMGAMYDYMYRRLVQANIKNDTGMLAEVEGYVTDFRDAWKQAIQSERKDRHGSGGIAEGGSHHHHHH | soluble
2 | MFHAAFMEERVFSDRGSMRNACSSIEYDGCRQGQSGPLLEEKEVKRKLFGALALVAMLAAPALAEAATRGFATANVNMRSGPSTAYPAVVVIPVGAPLTVHGCLSDTPWCDVSFVNGRGWVAGRYIQTTFRQNRVYVEPRYYRDLGVPVITFEAGRYWDRYYRDRDFYRERDRWRRPPPSGGYWNAPPPSAGWDRPRPRDDWRDGRRDDGRRDEWRDPRQGGPNDGRWERRYGDWNQGDRNQDRPRRDDDRRRWEDENRDRNRDRDSNRDGNRDRPQNQYDGQRGQLEGQPRPPAPAPDAPLQGCIIGSPGCAQRLEHHHHHH | soluble
3 | MATKEFYFAIIGHCDQPIFEMDFPVGEKKTKESEGTRHLNHYIGHAALDIVDEHALTTSQMYLKMVDKFNEWYVSAFVTASRIRFIMLHTHRADEGIKQFFQEMYETYIKHAMNPFYEIDDVIESPAFEQKATLYGRKYLS | not soluble
4 | MSQAELPVLRVAYMPLIDCAPLVAASRLGLDHAYGLQLQLHRQASWAGVRDRLLAGEVDAAHTLASLVYAIDLGVGGPQCPMALLMTLNHNGQAITLAPALAQGVAAGQPLPQVLAEAGRRVVFAQTFPTGTHALWLYYWLAACGVDPMRDVDVVSIPPPQMPEALASGLVDGYCSGEPWAAVAEAQGSGQRVIRSGELWPEHPEKVLACRREFAALQPELSERLTACVLEACRWLDAAPANRAQCAQWLADPDYIGVPAAHLAACLDADAATVSVDPSALAFHRGGAVNMPWLSDGEWFLEQFQRWGWHTLQAADLARLHDIHRLDNYRRAAQRAGVTAPDADRRINRLFDTPAALEHHHHHH | not soluble
5 | MNPNFLDFEQPIADLQAKIEELRLVGNDNALNISDEISRLQDKSKALTENIFGNLSSWQIAQLARHPKRPYTLDYIGYLFSDFEELHGDRHFADDPAIVGGVARLDGSPVMVIGHQKGREVREKVRRNFGMPRPEGYRKACRLMEMAERFKMPILTFIDTPGAYPGIDAEERGQSEAIAWNLRVMARLKTPIIATVIGEGGSGGALAIGVCDQLNMLQYSTYSVISPEGCASILWKTAEKAPEAAEAMGITAERLKGLGIVDKVIDEPLGGAHRDPASMAESIRGELLAQLKMLQGLEMGELLERRYDRLMSYGAP | not soluble
6 | MGSDKIHHHHHHMHRAGDSCTRDRRSRTAWRAALFQPVRRQRPVSEQCVRCCSSNEQWLDVCRYGSGAQGVGGVRHGNCLSPFTFISRLRRSGMTTDTFGGDLPASTLVPQPSFCVQTRVAHDADEQARNLHGWSQTYDQLTAGCFVGGLTELCLDHMQLFVETTSHTLRQTCEVQKDAYWFGIPACAAGSGRIDAQVIAGDALAFRPGGIEFELLTSAGYEIFGVVVKGEVLRRYAAQVERVGLADPVPNTQVVPIGMARKAQLCATLRQLLDDGAARGTPLSSVARNNLQAAVLASLFDVGALPASEPVAMPARPRRQSIVSEARDYVLLNRDRAVSVPELCEQLHVSRRTLQYCFQDVLGMAPATYLRAIRLNGARRDLSNASRESRSVQDVAAAWGFWHLSQFATDYRKLFGMRPSETLKAATGTRVERAGAFNAVALAHH | not soluble
7 | PGKGEGSPVGIAILGYGTVGSQVLRLLTENHNDFQHRAGGPLEIKGVAASSVEKHRGSLADQLGLLTDDARSLIARDDVDIVVEVIGGIDYPRELILEALHSGKSVVTANKALVAAHSEELAAAADEAGVDLYFEAAVAAAIPVLGPLRRSLAGDQIQSVAGIVNGTTNFILDAMDSTGASYDDMLAEATRLGYAEADPTADVEGHDAASKAAILASLAFHTRVTYADVYCEGISKITADDINAAKEAGFTIKLLAICERLNVDGVEKVSARVHPTLVPRNHPLASVDKSFNAIFVEAEAAGRLMFYGNGAGGNPTASAVLGDIVGAARNKVFGGRAPGESTYADLPIAPFGEVPTRFHIDMEVEDRVGVLADLAKTFSNHGISLRTVRQAEKDGHARLIVVTHTAKESELEATVEQIKNSDSVKKINSVIRLAG | soluble
8 | MFNFEKFWQHFNDEMRARFNEVAYNAWFKNTKPISYNQKTHELKIQVQNPVAKGYWEKNLSSQLIQSAYGYAGVELLPVFQISEDSDTPERIVTPEPQHNLQTTPTRAPQREFAKDLKLNEKYTFDNFVQGEGNKLAAGAALAVADSPGSFYNPLFIFGGVGLGKTHLMQAIGHQMLVERPNAKVVYIQSETFVNDFINSIKNKTQDKFREKYRTCDLLLVDDIQFFAKKEGIQEEFFHTFETLYNDQKQIVMTSDRLPTEIPDLSERLVSRFTWGLQVEITPPDLETRIAILRRKAEAEGLTIDDDTLDYIASQVDTNIRELEGALVKVQAYATIEKADIDINLAREALVDLKLVQKNRGLQIPKIQEVVANYFQTSTAELKGKKRVRQIVIPRQIAMYLSRELTDASLPKIGQEFGGKDHTTVMHAYDKIDKQMKTDADIKTAVFDLKQMLEHLEHHHHHH | not soluble
9 | MGSDKIHHHHHHMIIENLSQLYPKGYLSKTIGSEATYSIPVDDQFFIVNKAFLSIKEQHLLEALFPISENPTITGNHPWFSYLFQQAKLPAEGTFRMLQIQTNVTKELQAEWQFNLTKMFPDTVDCFSPSNNMYILVEEQSKNTFQQEEIQGIFLTLDTDFDCTSAVFVGNFYSSEDILRRCFHEEQRIFSEELNSSSRTTVFSLTDVALHYFTKEAMSQNVLVEYYRRLLNKDTDIQPIISALWKNQGNISSTAKDLFMHRNTLHYRLEKFFEQTGLSLKKMDDLIFCYLLLRK | not soluble
10 | MTGDHIKVIYFNGRGRAESIRMTLVAAGVNYEDERISFQDWPKIKPTIPGGRLPAVKITDNHGHVKWMVESLAIARYMAKKHHMMGGTEEEYYNVEKLIGQAEDLEHEYYKTLMKPEEEKQKIIKEILNGKVPVLLDIICESLKASTGKLAVGDKVTLADLVLIAVIDHVTDLDKEFLTGKYPEIHKHRENLLASSPRLAKYLSDRAATPF | soluble
11 | MDAAVIVPAYNEAESLARCLAPFESQPVELVVVVGGDDGTEQVARDTPFVDTVVRCDEGGAGIARNRGAAAATAPILLFTDADTVVPEDWVRLHLRHYADDEVIGVGGPARPLEDSLKHRVLFKLLSDYWYRVSWPLGFVQQPGFNCSFRADAFKAAGGFNEDIPFMEDTELSLRMKDYGRIVYDADSCVATSARREADEGYVSLFAKYVRGYANHYILRREFDADYFLEHHHHHH | not soluble
12 | MQADPAIRRFAKKRNKRVDRMILDSNYMHTSIDRYFPNESKRRGRPDIIYLLLEMTQESILNHKNQLRTYVHTRNNQVIRISPITRMPKSYNRFIGLFEDLFEKRIITNNGKELLSMEESSLGDLINSIRRDRTILLHPKGEMRKPSEFISNANILIVIGGFSEGDFISDTSFINERYAIFDQELTIWSVANEMVANYERAVGLT | not soluble
13 | MNRQPIVQLSNLSWTFREGETRRQVLDHITFDFEPGEFVALLGQSGSGKSTLLNLISGIEKPTTGDVTINGFAITQKTERDRTLFRRDQIGIVFQFFNLIPTLTVLENITLPQELAGVSQRKAAVVARDLLEKVGMADRERTFPDKLSGGEQQRVAISRALAHNPMLVLADEPTGNLDSDTGDKVLDVLLDLTRQAGKTLIMATHSPSMTQHADRVVNLQGGRLIPAVNRENQTDQPASTILLPTSYE | not soluble
14 | GMQTTEIDLRLTEVSQQLTMVLVPGLRDSDDEHWQSHWERRFPHWQRIRQREWYQADLDRWVLAIRRELSVCTQPVILIGHSFGALAACHVVQQGQEGIAGVMLVAPAEPMRFEIDDRIQASPLSVPTLTFASHNDPLMSFTRAQYWAQAWDSELVDVGEAGHINAEAGFGPWEYGLKRLAEFSEILIPNR | soluble
15 | MSLKKIEKIIEKEIHKNKLLQALMKKNQKTDKKTVFELVKQFNQKLNLTTILKTIRTKRSTYYYWLKAENKIKAKKEKYLLQQNRIKALCLHQQYFYGHRKITDLYQKTFNEFITKKKVYTIMKKNDINCRLRIKKNKYNYKNNLKTKLKVVDNLINQDFISIAPLQKLFTDITYFKIPQGFLYFSCIIDSFNNQIIASHTSKHQNKELVLNTIQKLPLLKEPCIIHSDQGTVYQSQKVQQTLTKKGFLISMSRKATPRDNAVIENFFGQMKTILQHQHPFLFQKSTKKLKKIINHFPKFWNNQWILAKLNYSSPSQYSQNLIEGHHHHHH | not soluble
16 | MGSDKIHHHHHHMSTLIRSALLVKFSEIARTLSVDPERMIRHVGADRSCIVSPDLHVPEPWLANVLDASEQASSGAAVGLLMAESWRLSDFGPISLLLQHQPTLRHALGQLETYRHLLSESVLVHVEETDAVAIVRLQLITDRPTPGRQPVELSIGAMLCLMKSMLGGKWKPRSVHFTHGAPANLHVHRRLFGTNVEFGSDFDGIVLDRQDLDRPNPLGDVNLARYAREFLDQHPRGRRISTASNVRRSVHMLLPRGQGSIEQVGQQLGMSARTLQRRLGQEGQEFSSLVNEVRRGLASRYLADLRYPVSQVAMLVGFAEVSTFSRWFSSQFGMPPTRWRTGAEH | not soluble
17 | MSLTRQMNILLVEDDDLDAMMIKRAMAQVAPDAHLIRATDGVEALEIVQSNRVEDPYFILLDVNMPRMNGHEFLKELRASSEHSDTMVFMFTTSESARDIARAYQERANGYIVKPHGKAAMNSILDTLQRYWTTCEEGHHHHHH | soluble
18 | MSEKLKIVYRPLQELSPYAHNARTHSTEQVAQLVESIKQFGWTNPVLIDEKGEIIAGHGRVMAAEMLKMDSVPVIVLSGLTDEQKQR | soluble
19 | SLTASIVYLNNVRLETGFAKDHHELTYTKTARYTLAIQEGKIQAIIPQNQVTEKQQGTDLNGQLAIPAFQESHNHLDKTYLSLGWRASQPVKNLKERLADEASELKLLAPSTEQRATAMIEKLIGYGASYIRTHVNIDPYVELENFWGVKRALEKYAHVIDYDIVVFPQHGLLKNPQTVLLMREALKNGGTMVGGLDPAGIDYAIEESLETIFDLAEEFQVGIDIHLHDTGEVGVYTIDKFLDILEERKFTQRTAISHAFALLDVRPAEKEKLYQRLATHQTAIMSTIPYDPRYLLPPIDVLRQAGVSVHLGSDGFFDSWSSNVSGDLFEKLRNFCEMTGKITEEQLTQAYVHGCGKVAPFSFEEERLWFTEGDEANFIFTEAASTAEVIARKPQKRQIMLKGQWV | soluble
20 | MSFAIEIVIKAPMDIVCDYIIEDEKIKEWNTFIIENRYPSNMDKENPRVGDKYITVQKVGKKIFEAEVEILEYDAPHIISLGSEMKQGYSAMTYMLEEDEEGTALTLISEYEPSNFYYKMMYKLTGWISRGLTMEQMERLAECVEAAYHKEDLEHHHHHH | not soluble
21 | EKPAMEYHWEEVFPELDSKNPMDRREMEQRREYLREKAKEAAAYAERPSSVRLASASLGTQPQEQPKPATPFQSQLTGILPEEQIQRLSEGIDKLAEAGEQLARIGRTAAAMTESYEQMQADQEGLRLNSQSYIQQMESLSRNISGLNTIYEIQLKGISSQIDTIDRINRGLAHIRDMYDNSVIDSSSFRNENERMARQLTQLNEVYARLLQALTTNVGLPGMPGNFGASNPSSSGSSPL | not soluble
22 | MGSDKIHHHHHHMAEIEQALASPQLIAEKVLKLPSKVLELDRKLADPQFDTKDLLALIEQDPLLSVEVLKLCNSPAFKRGEREVTSLQQALVQLGREQLRRFVTSSLVREMLDIKPIYFRRFGAEIWRHSMQVAFLASELSEEDRDTAFLLGLLHDVGKLAIFKMLLDAFVQAEPGEQPNSWLFRQVMTAKSLTLSALLAKHWQLPSTFETELDKLAHVHTRPNEGIAAVVWRANVISEISMLQQASKLPADMLSNLLALVGLEQAQFDELHEKLQQF | not soluble
23 | SNAMRIGHGFDVHKFGENGSGPLIIGGVRIPYEKGLLAHSDGDVALHAATDALLGAAALGDIGKLFPDTDPAFKGADSRGLLREAYRRILAKGYKLGNLDITIIAQAPKMAPHIPQMRVNLAEDLQCHMDDINVKATTTEQLGFTGRGEGIACEAVVLLVNVEQG | soluble
